What was measured:
Experiment in all cases: Mass spectroscopy proteomics, semi-quantitative binding affinity of serum proteins (plaqueproteome, Table 2)
Conditions in all cases: higher number = stronger affinity
[1] = test system: High Density cholesterol (Chl Large) plaque particles; design: species or system human
How it was run: (§1)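 Atherosclerotic plasma/serum (50% in PBS) + 30 μg cholesterol aggregates, 1 hr 37° C; FACS gates split low- vs high-density particles. Acetone precipitation, urea/ProteaseMAX, acrylamide alkylation, overnight Trypsin/Lys C at 37° C; Sequest search, Scaffold/Protein Prophet validation.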

[2] = test system: Low density cholesterol (Chl small) plaque particles; design: species or system human
How it was run: as §1

Tau plaque particles = test system: Tau plaque particles; design: species or system human
How it was run: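 Synthetic Tau-74 and Tau-275 peptides (1 mg/mL PBS, 37° C, 2 h) aggregated; 30 μg aggregates incubated with 50% serum/plasma 1 h at 37° C, stained with Thioflavin S, and plaque particles sorted by flow cytometry. Bound proteins trypsin-digested and identified by MS/MS against human UniProt.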

[3] = target: T1, Abeta-42 plaque particles (Homo sapiens, UniProt P05067)
T1 construct: Abeta 1-42
How it was run: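 AD patient serum or plasma (50% in PBS) was incubated with Abeta-42 aggregates (30 μg) for 1 h at 37 °C, then stained with Thioflavin S for 30 min. Labeled particles were FACS-sorted, trypsin/Lys-C digested overnight and analyzed by MS/MS. Sequest searched human UniProt; Scaffold/Protein Prophet validated the identifications.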

[4] = target: T2, alpha-synuclein plaque particles (Homo sapiens, UniProt P37840)
T2 construct: 140 amino acids polypeptide
How it was run: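 AD-subject plasma or serum (800 μL of 50%) mixed with 30 μg preformed alpha-synuclein aggregates for 1 h at 37 °C; Thioflavin S-positive particles isolated by flow sorting. After reduction, acrylamide alkylation and overnight tryptic digestion, serum proteins identified by MS/MS with Sequest and Scaffold.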

Molecule | Semi-quantitative analysis of proteins binding to different plaque particles: Chl Large [1] | Semi-quantitative analysis of proteins binding to different plaque particles: Chl small [2] | Semi-quantitative analysis of proteins binding to different plaque particles: Tau (Tau plaque particles) | Semi-quantitative analysis of proteins binding to different plaque particles: Abeta-42 [3] | Semi-quantitative analysis of proteins binding to different plaque particles: Synuclein [4]
Cluster of Ig alpha-1 chain C region (protein, UniProt P01876 1-398, looked up) Immunoglobulin heavy constant …: ASPTSPKVFPLSLCSTQPDGNVVIACLVQGFFPQEPLSVTWSESGQGVTARNFPPSQDASGDLYTTSSQLTLPATQCLAGKSVTCHVKHYTNPSQDVTVPCPVPSTPPTPSPSTPPTPSPSCCHPRLSLHRPALEDLLLGSEANLTCTLTGLRDASGVTFTWTPSSGKSAVQGPPERDLCGCYSVSSVLPGCAEPWNHGKTFTCTAAYPESKTPLTATLSKSGNTFRPEVHLLPPPSEELALNELVTLTCLARGFSPKDVLVRWLQGSQELPREKYLTWASRQEPSQGTTTFAVTSILRVAAEDWKKGDTFSCMVGHEALPLAFTQKTIDRLADWQMPPPYVVLDLPQETLEEETPGANLWPTTITFLTLFLLSLFYSTALTVTSVRGPSGNREGPQY | 10 | 9 | 12 | 9 | 12
Ig alpha-2 chain C region (protein) ASPTSPKVFPLSLDSTPQDGNVVVACLVQGFFPQEPLSVTWSESGQNVTARNFPPSQDASGDLYTTSSQLTLPATQCPDGKSVTCHVKHYTNSSQDVTVPCRVPPPPPCCHPRLSLHRPALEDLLLGSEANLTCTLTGLRDASGATFTWTPSSGKSAVQGPPERDLCGCYSVSSVLPGCAQPWNHGETFTCTAAHPELKTPLTANITKSGNTFRPEVHLLPPPSEELALNELVTLTCLARGFSPKDVLVRWLQGSQELPREKYLTWASRQEPSQGTTTYAVTSILRVAAEDWKKGETFSCMVGHEALPLAFTQKTIDRMAGKPTHINVSVVMAEADGTCY | 9 | 6 | 10 | 7 | 10
Cluster of Ig mu chain C region (protein, UniProt P01871 1-474, looked up) Immunoglobulin heavy constant …: GSASAPTLFPLVSCENSPSDTSSVAVGCLAQDFLPDSITFSWKYKNNSDISSTRGFPSVLRGGKYAATSQVLLPSKDVMQGTDEHVVCKVQHPNGNKEKNVPLPVIAELPPKVSVFVPPRDGFFGNPRKSKLICQATGFSPRQIQVSWLREGKQVGSGVTTDQVQAEAKESGPTTYKVTSTLTIKESDWLGQSMFTCRVDHRGLTFQQNASSMCVPDQDTAIRVFAIPPSFASIFLTKSTKLTCLVTDLTTYDSVTISWTRQNGEAVKTHTNISESHPNATFSAVGEASICEDDWNSGERFTCTVTHTDLPSPLKQTISRPKGVALHRPDVYLLPPAREQLNLRESATITCLVTGFSPADVFVQWMQRGQPLSPEKYVTSAPMPEPQAPGRYFAHSILTVSEEEWNTGETYTCVVAHEALPNRVTERTVDKSTEGEVSADEEGFENLWATASTFIVLFLLSLFYSTTVTLFKVK | 10 | 10 | 11 | 5 | 9
Inter-alpha-trypsin inhibitor heavy chain H4 (protein) EKNGIDIYSLTVDSRVSSRFAHTVVTSRVVNRANTVQEATFQMELPKKAFITNFSMIIDGMTYPGIIKEKAEAQAQYSAAVAKGKSAGLVKATGRNMEQFQVSVSVAPNAKITFELVYEELLKRRLGVYELLLKVRPQQLVKHLQMDIHIFEPQGISFLETESTFMTNQLVDALTTWQNKTKAHIRFKPTLSQQQKSPEQQETVLDGNLIIRYDVDRAISGGSIQIENGYFVHYFAPEGLTTMPKNVVFVIDKSGSMSGRKIQQTREALIKILDDLSPRDQFNLIVFSTEATQWRPSLVPASAENVNKARSFAAGIQALGGTNINDAMLMAVQLLDSSNQEERLPEGSVSLIILLTDGDPTVGETNPRSIQNNVREAVSGRYSLFCLGFGFDVSYAFLEKLALDNGGLARRIHEDSDSALQLQDFYQEVANPLLTAVTFEYPSNAVEEVTQNNFRLLFKGSEMVVAGKLQDRGPDVLTATVSGKLPTQNITFQTESSVAEQEAEFQSPKYIFHNFMERLWAYLTIQQLLEQTVSASDADQQALRNQALNLSLAYSFVTPLTSMVVTKPDDQEQSQVAEKPMEGESRNRNVHSGSTFFKYYLQGAKIPKPEASFSPRRGWNRQAGAAGSRMNFRPGVLSSRQLGLPGPPDVPDHAAYHPFRRLAILPASAPPATSNPDPAVSRVMNMKIEETTMTTQTPAPIQAPSAILPLPGQSVERLCVDPRHRQGPVNLLSDPEQGVEVTGQYEREKAGFSWIEVTFKNPLVWVHASPEHVVVTRNRRSSAYKWKETLFSVMPGLKMTMDKTGLLLLSDPDKVTIGLLFWDGRGEGLRLLLRDTDRFSSHVGGTLGQFYQEVLWGSPAASDDGRRTLRVQGNDHSATRERRLDYQEGPPGVEISCWSVEL | 20 | 13 | 15 | 2 | 12
Inter-alpha-trypsin inhibitor heavy chain H2 (protein) SLPGESEEMMEEVDQVTLYSYKVQSTITSRMATTMIQSKVVNNSPQPQNVVFDVQIPKGAFISNFSMTVDGKTFRSSIKEKTVGRALYAQARAKGKTAGLVRSSALDMENFRTEVNVLPGAKVQFELHYQEVKWRKLGSYEHRIYLQPGRLAKHLEVDVWVIEPQGLRFLHVPDTFEGHFDGVPVISKGQQKAHVSFKPTVAQQRICPNCRETAVDGELVVLYDVKREEKAGELEVFNGYFVHFFAPDNLDPIPKNILFVIDVSGSMWGVKMKQTVEAMKTILDDLRAEDHFSVIDFNQNIRTWRNDLISATKTQVADAKRYIEKIQPSGGTNINEALLRAIFILNEANNLGLLDPNSVSLIILVSDGDPTVGELKLSKIQKNVKENIQDNISLFSLGMGFDVDYDFLKRLSNENHGIAQRIYGNQDTSSQLKKFYNQVSTPLLRNVQFNYPHTSVTDVTQNNFHNYFGGSEIVVAGKFDPAKLDQIESVITATSANTQLVLETLAQMDDLQDFLSKDKHADPDFTRKLWAYLTINQLLAERSLAPTAAAKRRITRSILQMSLDHHIVTPLTSLVIENEAGDERMLADAPPQDPSCCSGALYYGSKVVPDSTPSWANPSPTPVISMLAQGSQVLESTPPPHVMRVEND | 10 | 12 | 14 | 9 | 13
Vitamin D-binding protein (protein) LERGRDYEKNKVCKEFSHLGKEDFTSLSLVLYSRKFPSGTFEQVSQLVKEVVSLTEACCAEGADPDCYDTRTSALSAKSCESNSPFPVHPGTAECCTKEGLERKLCMAALKHQPQEFPTYVEPTNDEICEAFRKDPKEYANQFMWEYSTNYGQAPLSLLVSYTKSYLSMVGSCCTSASPTVCFLKERLQLKHLSLLTTLSNRVCSQYAAYGEKKSRLSNLIKLAQKVPTADLEDVLPLAEDITNILSKCCESASEDCMAKELPEHTVKLCDNLSTKNSKFEDCCQEKTAMDVFVCTYFMPAAQLPELPDVELPTNKDVCDPGNTKVMDKYTFELSRRTHLPEVFLSKVLEPTLKSLGECCDVEDSTTCFNAKGPLLKKELSSFIDKGQELCADYSENTFTEYKKKLAERLKAKLPDATPTELAKLVNKHSDFASNCCSINSPPLYCDSEIDAELKNIL | 21 | 18 | 19 | 12 | 17
Ig mu chain C region (protein) GSASAPTLFPLVSCENSPSDTSSVAVGCLAQDFLPDSITFSWKYKNNSDISSTRGFPSVLRGGKYAATSQVLLPSKDVMQGTDEHVVCKVQHPNGNKEKNVPLPVIAELPPKVSVFVPPRDGFFGNPRKSKLICQATGFSPRQIQVSWLREGKQVGSGVTTDQVQAEAKESGPTTYKVTSTLTIKESDWLGQSMFTCRVDHRGLTFQQNASSMCVPDQDTAIRVFAIPPSFASIFLTKSTKLTCLVTDLTTYDSVTISWTRQNGEAVKTHTNISESHPNATFSAVGEASICEDDWNSGERFTCTVTHTDLPSPLKQTISRPKGVALHRPDVYLLPPAREQLNLRESATITCLVTGFSPADVFVQWMQRGQPLSPEKYVTSAPMPEPQAPGRYFAHSILTVSEEEWNTGETYTCVVAHEALPNRVTERTVDKSTGKPTLYNVSLVMSDTAGTCY | 10 | 10 | 10 | 5 | 8

Reference: patent US9618524B2, “Method, composition, isolation and identification of a plaque particle and related biomarker” (Plaxgen Inc., priority 2012, dated 2017)
